Results published in US20180085456A1 (AFFIMED, published 2018).

Target: T1, CD30 on CD30+ lymphoma cells (KARPAS-299) (UniProt P28908 19-595, limits assumed)
T1 sequence (looked up): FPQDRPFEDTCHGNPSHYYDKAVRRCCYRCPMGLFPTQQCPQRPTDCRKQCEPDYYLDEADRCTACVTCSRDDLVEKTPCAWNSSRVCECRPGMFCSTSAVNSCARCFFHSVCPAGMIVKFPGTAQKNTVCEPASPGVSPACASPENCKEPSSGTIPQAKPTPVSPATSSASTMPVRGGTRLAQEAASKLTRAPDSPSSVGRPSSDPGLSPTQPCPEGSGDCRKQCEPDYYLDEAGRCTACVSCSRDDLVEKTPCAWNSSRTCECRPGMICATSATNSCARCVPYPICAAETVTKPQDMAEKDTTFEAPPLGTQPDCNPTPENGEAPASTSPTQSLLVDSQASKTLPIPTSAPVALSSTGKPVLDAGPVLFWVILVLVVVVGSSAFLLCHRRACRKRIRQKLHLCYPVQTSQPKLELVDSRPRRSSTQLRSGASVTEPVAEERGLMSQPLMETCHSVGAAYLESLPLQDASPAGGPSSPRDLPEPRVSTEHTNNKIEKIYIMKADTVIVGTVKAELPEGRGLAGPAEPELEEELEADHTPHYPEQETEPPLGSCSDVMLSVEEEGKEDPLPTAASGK
Assay: cell-based or functional assay

potency and efficacy toward target and effector cells (EC50): 0.015 nM
B1: bispecific CD30/CD16A tandem diabody (AFM13) (bispecific antibody)
chain: QVQLVQSGAEVKKPGESLKVSCKASGYTFTSYYMHWVRQAPGQGLEWMGIINPSGGSTSYAQKFQGRVTMTRDTSTSTVYMELSSLRSEDTAVYYCARGSAYYYDFADYWGQGTLVTVSSGGSGGSGGSDIVMTQSPKFMSTSVGDRVTVTCKASQNVGTNVAWFQQKPGQSPKVLIYSASYRYSGVPDRFTGSGSGTDFTLTISNVQSEDLAEYFCQQYHTYPLTFGGGTKLEINGGSGGSGGSQVQLQQSGAELARPGASVKMSCKASGYTFTTYTIHWVRQRPGHDLEWIGYINPSSGYSDYNQNFKGKTTLTADKSSNTAYMQLNSLTSEDSAVYYCARRADYGNYEYTWFAYWGQGTTVTVSSGGSGGSGGSSYVLTQPSSVSVAPGQTATISCGGHNIGSKNVHWYQQRPGQSPVLVIYQDNKRPSGIPERFSGSNSGNTATLTISGTQAMDEADYYCQVWDNYSVLFGGGTKLTVL
